Source: patent publication US20250361274A1, “PEPTIDE AND PEPTIDE-CONTAINING AGENT” (PEPTIDREAM INC., priority 2022, published 2025)
Read-outs that look alike come from different tables or passages of the source. Numbered stars: 1 amine (or outer) side, 2 acyl side, 3 side chain; on linkers, the order of the positions; unused ones are H or OH. Bridge positions count the residues as written; N and C are the ends. Square brackets hold non-standard residues; d marks the D form. Ends that are not written are not given here. KCOpipzaa = N6-(4-(carboxymethyl)piperazine-1-carbonyl)-L-lysine, O=C(NCCCC[C@H](N[*:1])C(=O)[*:2])N1CCN(CC(=O)[*:3])CC1; F4aao = (S)-2-amino-3-(4-(carboxymethoxy)phenyl)propanoic acid, O=C([C@H](Cc1ccc(OCC(=O)[*:3])cc1)N[*:1])[*:2]; 3Pal(6-Ph) = N[C@@H](Cc1ccc(-c2ccccc2)nc1)C(=O)O; Phe(4-COOH) = N[C@@H](Cc1ccc(C(=O)O)cc1)C(=O)O; NMePhe(4-Me) = CN[C@@H](Cc1ccc(C)cc1)C(=O)O; Bip = N[C@@H](Cc1ccc(-c2ccccc2)cc1)C(=O)O; Phe(4-F) = N[C@@H](Cc1ccc(F)cc1)C(=O)O; Ala(4-THP) = N[C@@H](CC1CCOCC1)C(=O)O; cisHyp = O=C(O)[C@@H]1C[C@H](O)CN1; NMeF = CN[C@@H](Cc1ccccc1)C(=O)O; 4Pal = N[C@@H](Cc1ccncc1)C(=O)O; Aad = N[C@@H](CCCC(=O)O)C(=O)O; Cha = N[C@@H](CC1CCCCC1)C(=O)O; βAla = NCCC(=O)O

Key:
BMP4 [1] = target: T1, BMP4 (Homo sapiens, UniProt P12644); experiment: BMP4 signal transduction inhibitory activity: SMAD1 phosphorylation by BMP4 stimulus, AlphaLISA SureFire, A549 cells; format: cell-based
T1 sequence (P12644 293-408): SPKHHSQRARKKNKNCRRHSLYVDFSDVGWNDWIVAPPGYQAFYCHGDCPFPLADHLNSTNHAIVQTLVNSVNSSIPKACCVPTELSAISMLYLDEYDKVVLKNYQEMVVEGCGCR

BMP7 [2] = target: T2, BMP7 (Homo sapiens, UniProt P18075); experiment: BMP7 signal transduction inhibitory activity: SMAD1 phosphorylation by BMP7 stimulus, A549 cells; format: cell-based
T2 sequence (P18075 293-431): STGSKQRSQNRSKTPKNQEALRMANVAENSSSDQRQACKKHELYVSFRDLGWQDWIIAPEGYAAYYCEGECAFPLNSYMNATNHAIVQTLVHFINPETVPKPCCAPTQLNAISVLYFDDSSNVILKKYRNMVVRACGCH
Summary of the method: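 SMAD1 phosphorylation readout in A549 cells stimulated with BMP7 (10 nM). Peptides were tested at three levels (e.g. 1/10/100, 10/100/1,000, 100/300/1,000, 10/30/90 nM) or at eight points, 1/3 steps, from 100 or 1,000 nM. Recombinant Noggin served as positive control at matching concentrations.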

BMP4 [3] = target: T3, BMP4 (UniProt P12644 293-408); experiment: cell-based or functional assay
T3 sequence (looked up): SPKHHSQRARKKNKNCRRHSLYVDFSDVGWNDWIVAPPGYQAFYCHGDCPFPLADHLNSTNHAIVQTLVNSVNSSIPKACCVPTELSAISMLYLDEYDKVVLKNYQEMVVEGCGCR

BMP7 [4] = target: T4, BMP7 (UniProt P18075 293-431); experiment: cell-based or functional assay
T4 sequence (looked up): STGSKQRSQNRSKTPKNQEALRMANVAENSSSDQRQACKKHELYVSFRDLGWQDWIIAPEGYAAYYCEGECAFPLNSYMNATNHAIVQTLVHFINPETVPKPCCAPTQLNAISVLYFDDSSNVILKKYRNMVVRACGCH

BMP5 = target: T5, BMP5 (UniProt P22003 317-454, limits assumed); experiment: cell-based or functional assay
T5 sequence (looked up): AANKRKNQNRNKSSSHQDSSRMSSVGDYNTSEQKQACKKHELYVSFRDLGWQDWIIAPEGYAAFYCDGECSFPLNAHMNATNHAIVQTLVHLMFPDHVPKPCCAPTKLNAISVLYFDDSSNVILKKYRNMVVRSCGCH

BMP6 = target: T6, BMP6 (UniProt P22004 382-513, limits assumed); experiment: cell-based or functional assay
T6 sequence (looked up): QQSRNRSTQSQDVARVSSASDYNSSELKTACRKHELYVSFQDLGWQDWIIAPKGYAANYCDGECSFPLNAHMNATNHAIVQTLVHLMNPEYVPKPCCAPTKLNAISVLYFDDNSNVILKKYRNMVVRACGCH

BMP7 [5] = target: T4, BMP7; experiment: cell-based or functional assay; remark: listed apart in the source
BMP4 [6] = target: T3, BMP4; experiment: SPR (Biacore T200), BMP4 amine-coupled on CM5 chip, peptide as analyte, single cycle kinetics
Method: (§1) A CM5 sensor chip (Cytiva) was inserted into a BiacoreT200 (Cytiva). Three priming runs were performed using running buffer: HBS-EP+ (Cytiva). The system was then equilibrated at a flow rate of 30 μL/min. Subsequently, 50 μL of 60 mM EDC solution (Cytiva) and 50 μL of 650 mM NHS solution (Cytiva) were mixed and were allowed to react at a flow rate of 10 μL/min for 420 seconds. The resultant was diluted with a 10 mM acetic acid solution (pH 5.0), to prepare 150 μL of 0.2 μM BMP4/BMP7 solution. The solution was allowed to react at a flow rate of 10 μL/min for 420 seconds, and the BMP4/BMP7 was immobilized in a CM5 sensor chip. After immobilization, capping was performed by reacting with 1.0 M ethanolamine aqueous solution (Cytiva) at a flow rate of 10 μL/min for 420 seconds. A liquid prepared by dissolving each peptide at 10 mM in a DMSO solution was diluted with a running buffer so that the final concentration of the peptide-dissolved liquid would be 10 μM. Then, the peptide solutions (100 nM, 50 nM, 25 nM, 10 nM, and 5 nM) were prepared. […]
(§2) The kinetics evaluation model was Single Cycle Kinetics, and curve fitting was performed using Biacore T200 Evaluation Software Version 3.0 (Cytiva). The binding of peptides to BMP4/BMP7 was evaluated by performing least-squares curve fitting on the obtained sensorgram to calculate the KD value.

BMP7 [7] = target: T4, BMP7; experiment: SPR (Biacore T200), BMP7 amine-coupled on CM5 chip, peptide as analyte, single cycle kinetics
Method: as §1, §2

Question: “76 ({CH2CO}-E[KCOpipzaa]VYV[KCOpipzaa][KCOpipzaa][Bip]PYP[Bip][Phe(4-F)][Phe(4-COOH)][4Pal]SCG-NH2; thioether N-17; not fully specified) [compound 76]” was tested. Which “aLISA BMP4” value (BMP4 [1]; inhibition of SMAD1 phosphorylation by BMP4 stimulus, AlphaLISA, A549 cells, class by peptide concentration zone) did it give?
Answer: C (showed an inhibitory activity of less than 50% in 0.2 nM-addition zone and showed an inhibitory activity of 50% or more in 2 nM-addition zone were defined as B or C)

Question: And the “aLISA BMP7” value (BMP7 [2]; inhibition of SMAD1 phosphorylation by BMP7 stimulus, AlphaLISA, A549 cells, class by peptide concentration zone)?
Answer: C (showed less than 50% of inhibitory activity in 10 nM-addition zone and showed 50% or more of inhibitory activity in 100 nM-addition zone)

Question: Which “aLIZA BMP4 (0.2 nM) % inh” value (BMP4 [1]; BMP4 0.2 nM stimulus, peptide conc. in assay 0.02, 0.2, 2 nM, class symbols) does the source give for “270 (QRV[F4aao]VDR[3Pal(6-Ph)]SYV[Bip][4Pal][Phe(4-COOH)][Phe(4-COOH)]SCG-NH2; not fully specified) [compound 270]” here?
Answer: C (showed less than 30% of inhibitory activity in 0.2 nM-addition zone and showed 30% or more of inhibitory activity in 2 nM-addition zone)

Question: And the “aLIZA BMP7 (10 nM) % inh” value (BMP7 [2]; BMP7 10 nM stimulus, peptide conc. in assay 10, 100, 1000 nM, class symbols)?
Answer: ND (the inhibitory activity was less than 30% at the maximum concentration evaluated)

Question: With {CH2CO}-ERVYVDR[3Pal(6-Ph)]SYV[Bip]Y[Phe(4-COOH)][Phe(4-COOH)]SCG-NH2 (thioether N-17 (inferred)) [BMP4 signal transduction inhibition peptide No. 87 (SEQ ID NO: 87)] as the molecule, how does the “IC50 (nM), SMAD1 phosphorylation in A549 cells” value (BMP4 [3]) read?
Answer: 0.08 nM

Question: Which “IC50 (nM), SMAD1 phosphorylation in A549 cells” value (BMP7 [4]) does the source give for {CH2CO}-[Phe(4-F)]G[NMeF]G[3Pal(6-Ph)]GDE[Cha][Aad][NMePhe(4-Me)]L[cisHyp]C[βAla][dE]-OH (thioether N-14 (inferred)) [BMP7 signal transduction inhibition peptide SEQ ID NO: 417 (Example 6)] here?
Answer: 15.6 nM

Question: And the “IC50, SMAD1 phosphorylation, BMP5 2 nM” value (BMP5)?
Answer: 19.3 nM

Question: And the “IC50, SMAD1 phosphorylation, BMP6 3 nM” value (BMP6)?
Answer: 28.7 nM

Question: What does the source list for {CH2CO}-ERV[Phe(4-COOH)][Ala(4-THP)][KCOpipzaa]R[Bip]PYP[Bip]Y[Phe(4-COOH)][Phe(4-COOH)]SC[βAla][dE]-OH (thioether N-17 (inferred)) [BMP4 signal transduction inhibition peptide No. 181]?
Answer: IC50 (nM), SMAD1 phosphorylation in A549 cells (BMP4 [3]): 0.052 nM; IC50 (nM), SMAD1 phosphorylation in A549 cells (BMP7 [5]): 1.6 nM

B1: BMP4 signal transduction inhibition peptide No. 84 (SEQ ID NO: 84) (peptide)
peptide: {CH2CO}-ERVYVDR[Bip]PYV[Bip]Y[Phe(4-COOH)][Phe(4-COOH)]SC[βAla][dE]-OH
modifications: thioether N-17
SMILES: CC(C)[C@@H]1NC(=O)[C@H](Cc2ccc(O)cc2)NC(=O)[C@H](C(C)C)NC(=O)[C@H](CCCNC(=N)N)NC(=O)[C@H](CCC(=O)O)NC(=O)CSC[C@@H](C(=O)NCCC(=O)N[C@H](CCC(=O)O)C(=O)O)NC(=O)[C@H](CO)NC(=O)[C@H](Cc2ccc(C(=O)O)cc2)NC(=O)[C@H](Cc2ccc(C(=O)O)cc2)NC(=O)[C@H](Cc2ccc(O)cc2)NC(=O)[C@H](Cc2ccc(-c3ccccc3)cc2)NC(=O)[C@H](C(C)C)NC(=O)[C@H](Cc2ccc(O)cc2)NC(=O)[C@@H]2CCCN2C(=O)[C@H](Cc2ccc(-c3ccccc3)cc2)NC(=O)[C@H](CCCNC(=N)N)NC(=O)[C@H](CC(=O)O)NC1=O
notes: thioether ring between N-terminal chloroacetyl and Cys17
Question: For B1, which Kd (BMP4 [6]) is on record?
Answer: 2.1 nM

Question: And the Kd (BMP7 [7])?
Answer: 21.7 nM

B2: Noggin: recombinant Human Noggin Protein (R&D), positive control; secreted protein that has BMP inhibitory activity (protein)
chain: QHYLHIRPAPSDNLPLVDLIEHPDPIFDPKEKDLNETLLRSLLGGHYDPGFMATSPPEDRPGGGGGAAGGAEDLAELDQLLRQRPSGAMPSEIKGLEFSEGLAQGKKQRLSKKLRRKLQMWLWSQTFCPVLYAWNDLGSRFWPRYVKVGSCFSKRSCSVPEGMVCKPSKSVHLTVLRWRCQRRGGQRCGWIPIQYPIISECKCSC
Question: B2 was tested. Which IC50 (BMP4 [1]; Table 2-2, 277 from 20 nM (1/3), 417 from 300 nM (1/4), ND = IC50 was not calculated) did it give?
Answer: 0.13 nM

Question: And the IC50 (BMP4 [1]; Table 2, eight concentrations, ratio 1/3 from 2 nM, A549 cells)?
Answer: 0.08 nM

Question: What about the IC50 (BMP7 [2]; Table 2-2, 277 from 1,000 nM (1/3), 417 from 300 nM (1/4)) of the same molecule?
Answer: 5.74 nM

Question: What about the IC50 (BMP7 [2]; Table 2, eight concentrations, ratio 1/3 from 100 nM, ND = IC50 was not calculated in the evaluation systems) of the same molecule?
Answer: 2.7 nM
